The labels stand for the following.
B1: Sybody 11 (VHH)
VHH: QVQLVESGGGLVQAGGSLRLSCAASGFPVRTENMHWYRQAPGKEREWVAAIYSFGATMLYADSVKGRFTISRDNAKNTVYLQMNSLKPEDTAVYYCAVNVGEWYEGQGTQVTVS
B2: Sybody 9 (VHH)
VHH: QVQLVESGGGLVQAGGSLRLSCAASGFPVGQQHMYWYRQAPGKEREWVAAIYSYGHITKYADSVKGRFTISRDNAKNTVYLQMNSLKPEDTAVYYCWVYVGDYYEGQGTQVTVS
B3: Sybody 2 (VHH)
VHH: QVQLVESGGGLVQAGGSLRLSCAASGFPVSNEEMTWYRQAPGKEREWVAAIASNGNQTEYADSVKGRFTISRDNAKNTVYLQMNSLKPEDTAVYYCYVYVGASYIGQGTQVTVS
B4: 25 (VHH)
VHH: B3 VHH with S30E, N31S, E32T, A52E, N54E, N56H, Q57G, S103G
B5: Sybody 17 (VHH)
VHH: B3 VHH with S30K, N31A, E32S, T35E, N54I, N56Y, Q57N, E59Y, Y97L, S103T
B6: 27 (VHH)
VHH: B3 VHH with S30K, N31A, E32S, T35V, A52L, N54Q, N56H, Q57A, Y99W, A102R
B7: 19 (VHH)
VHH: B3 VHH with S30Y, N54Y, N56R, Q57L, A102Q
B8: Sybody 3 (VHH)
VHH: B3 VHH with N31H, E32T, A52E, N54Q, N56V, Q57Y, E59H, E89D, A102G, S103G
B9: Sybody 5 (VHH)
VHH: B3 VHH with S30A, N31Q, E32Q, A52S, N54I, N56S, Q57I, E59H
B10: Sybody 10 (VHH)
VHH: B3 VHH with S30E, N31S, E32A, T35E, A52T, N54Q, N56T, Q57I
B11: 22 (VHH)
VHH: QVQLVESGGGLVQAGGSLRLSCAASGFPVNHYEMEWYRQAPGREREWVAAIMDSTGYETAYADSVKGRFTISRDNAKNTVYLQMNSLKPEDTAVYYCYVYVGASYIGQGTQVTVS
B12: 29 (VHH)
VHH: QVQLVESGGGLVQAGGSLRLSCAASGFPVHYTYMRWYRQAPGKEREWVAAIKSYGQHTTYADSVKGRFTISRDNAKNTVYLQMNSLKPEDTAVYYCEVVGETYRGQGTQVTVS
B13: Sybody 8 (VHH)
VHH: QVQLVESGGGLVQAGGSLRLSCAASGFPVKSYEMEWYRQAPGKEREWVAAISSYGEYTEYADSVKGRFTISRDNAKNTVYLQMNSLKPEDTAVYYCYVWVGDSYLGQGTQVTVS
B14: 18 (VHH)
VHH: QVQLVESGGGLVQAGGSLRLSCAASGFPVDYKSMWWYRQAPGKEREWVAAIDSAGDTTTYADSVKGRFTISRDNAKNTVYLQMNSLKPEDTAVYYCTVWVGTTYTGQGTQVTVS
B15: Sybody 13 (VHH)
VHH: QVQLVESGGGLVQAGGSLRLSCAASGFPVENYYMRWYRQAPGKEREWVAAIESSGAETRYADSVKGRFTISRDNAKNTVYLQMNSLKPEDTAVYYCYVVVGWGYAGQGTQVTVS
B16: Sybody 6 (VHH)
VHH: QVQLVESGGGLVQAGGSLRLSCAASGFPVNHTRMYWYRQAPGKEREWVAAIQSHGQNTFYADSVKGRFTISRDNAKNTVYLQMNSLKPEDTAVYYCYVWVGNQYWGQGTQVTVS
B17: Sybody 1 (VHH)
VHH: QVQLVESGGGLVQAGGSLRLSCAASGFPVNTSEMAWYRQAPGKEREWVAAIESSGDETYYADSVKGRFTISRDNAKNTVYLQMNSLKPEDTAVYYCYVYVGGSYLGQGTQVTVS
B18: 28 (VHH)
VHH: B13 VHH with K30Y, Y32A, E56T, Y57N, E59Y, W99Y, D102S, L105I
B19: Sybody 4 (VHH)
VHH: B17 VHH with T31G, S32F, E33N, A35E, E52T, S54E, D56N, E57Y, G102Q, L105I
B20: Sybody 14 (VHH)
VHH: B13 VHH with K30A, S31T, Y32A, E35V, S52M, Y54A, E56Q, Y57E, D102K, L105I
B21: 21 (VHH)
VHH: B17 VHH with N30K, T31E, A35T, P41R, E52N, S54H, D56M, E57T, Y59H, L105I
B22: 24 (VHH)
VHH: B13 VHH with K30S, S31T, Y32A, Y54S, E56T, Y57W, E59Y, D102S
B23: Sybody 7 (VHH)
VHH: B17 VHH with T31A, S32E, A35E, E52S, E57W, Y97L, G102S, S103T, L105I
B24: Sybody 16 (VHH)
VHH: B3 VHH with Q13R, S30A, N31S, E32Q, A52S, N54S, N56R, A102G
B25: Sybody 15 (VHH)
VHH: QVQLVESGGGLVQAGGSLRLSCAASGFPVYEHYMRWYRQAPGKEREWVAAIQSHGNHTAYADSVKGRFTISRDNAKNTVYLQMNSLKPEDTAVYYCFVVVGNGYTGQGTQVTVS

Residue numbers refer to the chain shown, from its start.

The target of this assay is SARS-CoV-2 spike receptor-binding domain (2019-nCoV RBD-SD1, residues 319–566) (SARS-CoV-2, UniProt P0DTC2).
Turning to B1, the binding result is reported as “binds”. Regarding B2, the binding result is recorded as “binds”. In the case of B3 it was “binds”; in that of B4, “binds”; in that of B5, “binds”. In the case of B6 it was “binds”. In the case of B7 it was “binds”. Turning to B8, the binding result is on record as “binds”. For B9, the binding result is reported as “binds”. On to B10, for which the binding result was “binds”. As for B11, the binding result is “binds”. Under B12 stands “binds”. In the case of B13 it was “binds”. For B14, the binding result was “binds”. In the case of B15 it was “binds”. Under B16 stands “binds”; under B17, “binds”. Under B18 stands “binds”. For the molecule B19, the binding result was “binds”. Under B20 stands “binds”; under B21, “binds”. In the case of B22, the binding result is on record as “binds”.

For the molecule B23, the binding result is “binds”. In the case of B24 it was “binds”; in that of B25, “binds”.

(Values after paper PMC7642358 (Nature Communications, 2020).)
